{
  "source": "paper PMC11784077",
  "assay_in_all_cases": "non-reducing gel electrophoresis with western blot (trimerization assay); BmN cells expressing GP64 or CARC mutants harvested, lysed in PBS (pH 7.4), separated on 10% nonreducing polyacrylamide gel, blotted with anti-GP64 (AcV5)",
  "key": {"[1]": {"target": "BmNPV GP64 (wild type, signal peptide retained) (Bombyx mori nucleopolyhedrovirus (BmNPV)) (UniProt P41722)"}, "[2]": {"target": "BmNPV GP64 F235A (CARC5 mutant) (Bombyx mori nucleopolyhedrovirus (BmNPV)) (UniProt P41722)"}, "[3]": {"target": "BmNPV GP64 W154A (CARC2 mutant) (Bombyx mori nucleopolyhedrovirus (BmNPV)) (UniProt P41722)"}, "[4]": {"target": "BmNPV GP64 W178A (CARC3 mutant) (Bombyx mori nucleopolyhedrovirus (BmNPV)) (UniProt P41722)"}, "[5]": {"target": "BmNPV GP64 W299A (CARC6 mutant) (Bombyx mori nucleopolyhedrovirus (BmNPV)) (UniProt P41722)"}, "[6]": {"target": "BmNPV GP64 Y49A (CARC1 mutant) (Bombyx mori nucleopolyhedrovirus (BmNPV)) (UniProt P41722)"}, "[7]": {"target": "BmNPV GP64 Y188A (CARC4 mutant) (Bombyx mori nucleopolyhedrovirus (BmNPV)) (UniProt P41722)"}},
  "data": [
    {"substance": "BmNPV GP64 (wild type, signal peptide retained) (from UniProt P41722 1-37) (natural protein)", "values": [
      {"measurement": "stoichiometry N", "setting": "[1]", "value": 3}
    ]},
    {"substance": "BmNPV GP64 F235A (CARC5 mutant) (from UniProt P41722 1-37) (natural protein)", "values": [
      {"measurement": "stoichiometry N", "setting": "[2]", "value": 3}
    ]},
    {"substance": "BmNPV GP64 W154A (CARC2 mutant) (from UniProt P41722 1-37) (natural protein)", "values": [
      {"measurement": "stoichiometry N", "setting": "[3]", "value": 3}
    ]},
    {"substance": "BmNPV GP64 W178A (CARC3 mutant) (from UniProt P41722 1-37) (natural protein)", "values": [
      {"measurement": "stoichiometry N", "setting": "[4]", "value": 3}
    ]},
    {"substance": "BmNPV GP64 W299A (CARC6 mutant) (from UniProt P41722 1-37) (natural protein)", "values": [
      {"measurement": "stoichiometry N", "setting": "[5]", "value": 3}
    ]},
    {"substance": "BmNPV GP64 Y49A (CARC1 mutant) (from UniProt P41722 1-37) (natural protein)", "values": [
      {"measurement": "stoichiometry N", "setting": "[6]", "value": 3}
    ]},
    {"substance": "BmNPV GP64 Y188A (CARC4 mutant) (from UniProt P41722 1-37) (natural protein)", "values": [
      {"measurement": "stoichiometry N", "setting": "[7]", "value": 3}
    ]}
  ]
}
